Several values for one entry are separate records, joined by “and”; a condition that tells them apart may be missing. Identical values can stand only once.
What was measured:
[1] = target: the molecule itself; test: native gel or EMSA; native-PAGE of purified rPG_0686 / SEC fractions, with immunoblot
[2] = target: the molecule itself; test: SEC; Superdex 200 10/300 GL, 100 uL of 0.2 mg/mL rPG_0686, mobile phase 0.15 M ammonium bicarbonate, 0.1 mL/min; sizes calculated against Bio-Rad 1511901 protein standard

B1: recombinant PG_0686 (rPG_0686) protein of Porphyromonas gingivalis W83 (enzyme, UniProt Q7MWD6 1-517, looked up)
chain: MQVIKTNETFDSLDKSKLERMLDIKEAHREGHLTLEEAKERMKKEVGSISPEEFAAAEQLFKERDQDECQNEDVRTMLQLFEGLINPIRPDLPFGHPIDAYLRENDKAKELLDQADALLERTFIPNPWIELMETLMGYKLHFARKQNQLYSTLEQKGFDRPSTTMWTYDDHIRDEMNKAMSLLREKDYDSFPAAYKEMAIVLRDLMEKEELILYPTSLKLISDKEFEEMKHGDREIGFFLIDMPELDAPAKQSKEAHGQSFMAELGALLAKHGMGTGGQDDKAILDVAEGKLTLEQINLLFRHLPVDISFVDENELVCFYTDTKHRVFPRSKGVIGREVRNCHPPKSVHIVEEIIDKFRRGEQDRAEFWINKPGVFIYIVYVAIRDADGRFRGVMEMMQDCTRIRSLEGSRTLLTWDEEQSPAQGSKESESDTAGEDGIRPDTKLKSLLQRYPQLMDDLPTISSKFTLLRSPMAKVILPVATIKMMSERADIPSDMLIGKLESLIASYNKPDRSEEK
notes: PG_0686, hypothetical protein / diguanylate cyclase of Porphyromonas gingivalis W83; 517 amino acids, 60 kDa; the ORF of the PG_0686 gene cloned in-frame into pEXP5-NT/TOPO; domains hemerythrin (96-215), PAS10 (297-402), DUF-1858 (421-497); Number of copies in the native oligomer differs by method (SEC: decamer and pentamer; native-PAGE: octamer and tetramer); The vector pEXP5-NT/TOPO probably …
[1]
  stoichiometry N: 8 and 4
[2]
  stoichiometry N: 10 and 5

Reference: article PMC10101095, “The Oxidative Stress-Induced Hypothetical Protein PG_0686 in Porphyromonas gingivalis W83 Is a Novel Diguanylate Cyclase” (Microbiology Spectrum, 2023)
